Test results: patent publication US20130236458A1 (AbbVie / Abbott, published 2013)
Residue numbers refer to the chain shown, from its start.

T1: Recombinant Human IL-17 (human, UniProt Q16552 20-155, limits assumed)
T1 sequence (looked up): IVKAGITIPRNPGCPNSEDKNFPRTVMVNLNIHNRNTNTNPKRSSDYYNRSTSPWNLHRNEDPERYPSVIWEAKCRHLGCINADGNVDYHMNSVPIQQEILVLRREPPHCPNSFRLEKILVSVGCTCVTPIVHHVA

B1: DVD2148 (bispecific antibody)
VH: EVTLRESGPGLVKPTQTLTLTCTLYGFSLSTSDMGVDWIRQPPGKGLEWLAHIWWDDVKRYNPALKSRLTISKDTSKNQVVLKLTSVDPVDTATYYCARTVSSGYIYYAMDYWGQGTLVTVSSASTKGPEVQLVQSGAEVKKPGSSVKVSCKASGYTFTDYEIHWVRQAPGQGLEWMGVNDPESGGTFYNQKFDGRVTLTADESTSTAYMELSSLRSEDTAVYYCTRYSKWDSFDGMDYWGQGTTVTVSS
VL: DIQMTQSPSSLSASVGDRVTISCRASQDIRNYLNWYQQKPGKAPKLLIFYTSKLHSGVPSRFSGSGSGTDYTLTISSLQPEDIATYYCQQGLTPPLTFGGGTKVEIKRTVAAPDIQMTQSPSSLSASVGDRVTITCRASSGIISYIDWFQQKPGKAPKRLIYATFDLASGVPSRFSGSGSGTDYTLTISSLQPEDFATYYCRQVGSYPETFGQGTKLEIKR
B2: DVD2150 (bispecific antibody)
VH: B1 VH
VL: DIQMTQSPSSLSASVGDRVTISCRASQDIRNYLNWYQQKPGKAPKLLIFYTSKLHSGVPSRFSGSGSGTDYTLTISSLQPEDIATYYCQQGLTPPLTFGGGTKVEIKRTVAAPSVFIFPPDIQMTQSPSSLSASVGDRVTITCRASSGIISYIDWFQQKPGKAPKRLIYATFDLASGVPSRFSGSGSGTDYTLTISSLQPEDFATYYCRQVGSYPETFGQGTKLEIKR
B3: DVD2169 (bispecific antibody)
VH: EVQLVQSGAEVKKPGSSVKVSCKASGYTFTDYEIHWVRQAPGQGLEWMGVNDPESGGTFYNQKFDGRVTLTADESTSTAYMELSSLRSEDTAVYYCTRYSKWDSFDGMDYWGQGTTVTVSSASTKGPEVQLVQSGAEVKKPGASVKVSCKASGYTFTTYGVSWVRQAPGQGLEWMGEIYPGNYNTYYNEKFRGRVTMTTDTSTSTAYMELRSLRSDDTAVYYCARWRTSYFSDYGYFDYWGQGTTVTVSS
VL: DIQMTQSPSSLSASVGDRVTITCRASSGIISYIDWFQQKPGKAPKRLIYATFDLASGVPSRFSGSGSGTDYTLTISSLQPEDFATYYCRQVGSYPETFGQGTKLEIKRTVAAPSVFIFPPDVVMTQSPLSLPVTLGQPASISCRSSQSLVHSHGNTYLHWYQQRPGQSPRLLIYTVSNRFSGVPDRFSGSGSGTDFTLKISRVEAEDVGVYYCSQSTHVPYTFGGGTKVEIKR
B4: DVD2170 (bispecific antibody)
VH: EVQLVQSGAEVKKPGASVKVSCKASGYTFTTYGVSWVRQAPGQGLEWMGEIYPGNYNTYYNEKFRGRVTMTTDTSTSTAYMELRSLRSDDTAVYYCARWRTSYFSDYGYFDYWGQGTTVTVSSASTKGPSVFPLAPEVQLVQSGAEVKKPGSSVKVSCKASGYTFTDYEIHWVRQAPGQGLEWMGVNDPESGGTFYNQKFDGRVTLTADESTSTAYMELSSLRSEDTAVYYCTRYSKWDSFDGMDYWGQGTTVTVSS
VL: DVVMTQSPLSLPVTLGQPASISCRSSQSLVHSHGNTYLHWYQQRPGQSPRLLIYTVSNRFSGVPDRFSGSGSGTDFTLKISRVEAEDVGVYYCSQSTHVPYTFGGGTKVEIKRTVAAPDIQMTQSPSSLSASVGDRVTITCRASSGIISYIDWFQQKPGKAPKRLIYATFDLASGVPSRFSGSGSGTDYTLTISSLQPEDFATYYCRQVGSYPETFGQGTKLEIKR
B5: DVD2184 (bispecific antibody)
VH: EVQLVQSGAEVKKPGASVKVSCKASGYTFTSYWMHWVRQAPGQGLEWIGNINPKGGSNIYNEKFQGRVTMTRDTSISTAYMELSRLRSDDTAVYYCARLDYFGDSFDLWGQGTTVTVSSASTKGPEVQLVQSGAEVKKPGSSVKVSCKASGYTFTDYEIHWVRQAPGQGLEWMGVNDPESGGTFYNQKFDGRVTLTADESTSTAYMELSSLRSEDTAVYYCTRYSKWDSFDGMDYWGQGTTVTVSS
VL: DIQMTQSPSSLSASVGDRVTITCRASQGIRNYLNWYQQKPGKAPKLLIYYASNLEVGVPSRFSGSGSGTDYTLTISSLQPEDFATYYCQQDNRFPYTFGGGTKVEIKRTVAAPDIQMTQSPSSLSASVGDRVTITCRASSGIISYIDWFQQKPGKAPKRLIYATFDLASGVPSRFSGSGSGTDYTLTISSLQPEDFATYYCRQVGSYPETFGQGTKLEIKR
B6: DVD2176 (bispecific antibody)
VH: EVQLVQSGAEVKKPGASVKVSCKASGYTFTTYGVSWVRQAPGQGLEWMGEIYPGNYNTYYNEKFRGRVTMTTDTSTSTAYMELRSLRSDDTAVYYCARWRTSYFSDYGYFDYWGQGTTVTVSSASTKGPSVFPLAPEVQLVQSGAEVKKPGSSVKVSCKASGGSFGGYGIGWVRQAPGQGLEWMGGITPFFGFADYAQKFQGRVTITADESTTTAYMELSGLTSDDTAVYYCARDPNEFWNGYYSTHDFDSWGQGTTVTVSS
VL: DVVMTQSPLSLPVTLGQPASISCRSSQSLVHSHGNTYLHWYQQRPGQSPRLLIYTVSNRFSGVPDRFSGSGSGTDFTLKISRVEAEDVGVYYCSQSTHVPYTFGGGTKVEIKRTVAAPEIVLTQSPDFQSVTPKEKVTITCRASQDIGSELHWYQQKPDQPPKLLIKYASHSTSGVPSRFSGSGSGTDFTLTINGLEAEDAGTYYCHQTDSLPYTFGPGTKVDIKR
B7: DVD2182 (bispecific antibody)
VH: EVQLVQSGAEVKKPGASVKVSCKASGYTFTTYGVSWVRQAPGQGLEWMGEIYPGNYNTYYNEKFRGRVTMTTDTSTSTAYMELRSLRSDDTAVYYCARWRTSYFSDYGYFDYWGQGTTVTVSSASTKGPSVFPLAPEVQLVQSGAEVKKPGESVKISCKASGGSFRSYGISWVRQAPGQGLEWMGGITHFFGITDYAQKFQGRVTITADESTTTAYMELSGLTSDDTAVYYCAREPNDFWNGYYDTHDFDSWGQGTTVTVSS
VL: B6 VL with D146N, P161S, T173I, G202A, T209S, S211T, Y214H, P218Q
B8: DVD2178 (bispecific antibody)
VH: EVQLVQSGAEVKKPGASVKVSCKASGYTFTTYGVSWVRQAPGQGLEWMGEIYPGNYNTYYNEKFRGRVTMTTDTSTSTAYMELRSLRSDDTAVYYCARWRTSYFSDYGYFDYWGQGTTVTVSSASTKGPEVQLVQSGAEVKKPGESVKISCKASGGSFRSYGISWVRQAPGQGLEWMGGITHFFGITDYAQKFQGRVTITADESTTTAYMELSGLTSDDTAVYYCAREPNDFWNGYYDTHDFDSWGQGTTVTVSS
VL: B6 VL with D146N, P161S, T173I, G202A, T209S, S211T, Y214H, P218Q
B9: DVD2149 (bispecific antibody)
VH: EVQLVQSGAEVKKPGSSVKVSCKASGYTFTDYEIHWVRQAPGQGLEWMGVNDPESGGTFYNQKFDGRVTLTADESTSTAYMELSSLRSEDTAVYYCTRYSKWDSFDGMDYWGQGTTVTVSSASTKGPEVTLRESGPGLVKPTQTLTLTCTLYGFSLSTSDMGVDWIRQPPGKGLEWLAHIWWDDVKRYNPALKSRLTISKDTSKNQVVLKLTSVDPVDTATYYCARTVSSGYIYYAMDYWGQGTLVTVSS
VL: DIQMTQSPSSLSASVGDRVTITCRASSGIISYIDWFQQKPGKAPKRLIYATFDLASGVPSRFSGSGSGTDYTLTISSLQPEDFATYYCRQVGSYPETFGQGTKLEIKRTVAAPDIQMTQSPSSLSASVGDRVTISCRASQDIRNYLNWYQQKPGKAPKLLIFYTSKLHSGVPSRFSGSGSGTDYTLTISSLQPEDIATYYCQQGLTPPLTFGGGTKVEIKR
B10: DVD2163 (bispecific antibody)
VH: EVQLVQSGAEVKKPGESVKISCKASGGSFRSYGISWVRQAPGQGLEWMGGITHFFGITDYAQKFQGRVTITADESTTTAYMELSGLTSDDTAVYYCAREPNDFWNGYYDTHDFDSWGQGTTVTVSSASTKGPEVTLRESGPGLVKPTQTLTLTCTLYGFSLSTSDMGVDWIRQPPGKGLEWLAHIWWDDVKRYNPALKSRLTISKDTSKNQVVLKLTSVDPVDTATYYCARTVSSGYIYYAMDYWGQGTLVTVSS
VL: EIVLTQSPDFQSVTPKEKVTITCRASQNIGSELHWYQQKPDQSPKLLIKYASHSISGVPSRFSGSGSGTDFTLTINGLEAEDAATYYCHQSDTLPHTFGQGTKVDIKRTVAAPSVFIFPPDIQMTQSPSSLSASVGDRVTISCRASQDIRNYLNWYQQKPGKAPKLLIFYTSKLHSGVPSRFSGSGSGTDYTLTISSLQPEDIATYYCQQGLTPPLTFGGGTKVEIKR
B11: DVD2180 (bispecific antibody)
VH: B8 VH
VL: DVVMTQSPLSLPVTLGQPASISCRSSQSLVHSHGNTYLHWYQQRPGQSPRLLIYTVSNRFSGVPDRFSGSGSGTDFTLKISRVEAEDVGVYYCSQSTHVPYTFGGGTKVEIKRTVAAPSVFIFPPEIVLTQSPDFQSVTPKEKVTITCRASQNIGSELHWYQQKPDQSPKLLIKYASHSISGVPSRFSGSGSGTDFTLTINGLEAEDAATYYCHQSDTLPHTFGQGTKVDIKR

Molecular target: Recombinant Human IL-13 (human, UniProt P35225 35-146, limits assumed)
Assay: cell-based or functional assay

Recombinant Human IL-13, sequence (P35225 35-146 limits assumed): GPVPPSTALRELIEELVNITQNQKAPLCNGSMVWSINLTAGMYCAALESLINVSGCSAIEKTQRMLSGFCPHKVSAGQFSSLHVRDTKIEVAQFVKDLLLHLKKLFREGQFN

Going from B1 to B2, the “N-Terminal VD IL13 Neutralization Assay IC50” value rises from 0.054 nM to 0.099 nM (1.8-fold).

B4 and B5 are within 1.5-fold of each other in “N-Terminal VD IL13 Neutralization Assay IC50” value: 0.106 nM for the first, 0.121 nM for the second.

B6 and B7 are within 1.5-fold of each other in “N-Terminal VD IL13 Neutralization Assay IC50” value: 0.106 nM for the first, 0.077 nM for the second.

B8 and B11 are within 1.5-fold of each other in “N-Terminal VD IL13 Neutralization Assay IC50” value: 0.088 nM for the first, 0.091 nM for the second.

First: B3
Second: B9
The “C-Terminal VD IL13 Neutralization Assay IC50” value of the first is 4.6-fold lower: 0.309 nM for the first, 1.43 nM for the second.

B10 was tested, and the “C-Terminal VD IL13 Neutralization Assay IC50” value was 0.195 nM.

Molecular target: T1, Recombinant Human IL-17
Assay: cell-based or functional assay

Going from B1 to B2, the “C-Terminal VD IL17 Neutralization Assay IC50” value falls from 0.0116 nM to 0.004 nM (2.9-fold).

First: B4
Second: B5
The “C-Terminal VD IL17 Neutralization Assay IC50” value of the first is 76-fold lower: 0.0053 nM for the first, 0.405 nM for the second.

First: B6
Second: B7
The “C-Terminal VD IL17 Neutralization Assay IC50” value of the first is 2.3-fold lower: 0.116 nM for the first, 0.266 nM for the second.

Going from B8 to B11, the “C-Terminal VD IL17 Neutralization Assay IC50” value falls from 0.691 nM to 0.0567 nM (12-fold).

B3 and B9 are within 1.5-fold of each other in “N-Terminal VD IL17 Neutralization Assay IC50” value: 0.0021 nM for the first, 0.0028 nM for the second.

With B10 the “N-Terminal VD IL17 Neutralization Assay IC50” value was 0.0151 nM.
